Results on one molecule are retold here after patent US20200270704A1 (University of Texas, published 2020).

The assay concerns the target T1, NY-ESO-1 (human, UniProt P78358 1-180, limits assumed).
T1 construct: Tumor antigen; coated on ELISA plates (ThermoFisher or RayBiotech) and amine-coupled to a CM5 chip for SPR (RayBiotech); also called NY-ESO-1/CTAG1B
The assay is described as follows: SPR, NY-ESO-1 immobilised on CM5, antibody as analyte, bivalent analyte model. Background: SPR reads the build-up and loss of mass on a sensor chip optically.

T1 sequence (P78358 whole entry): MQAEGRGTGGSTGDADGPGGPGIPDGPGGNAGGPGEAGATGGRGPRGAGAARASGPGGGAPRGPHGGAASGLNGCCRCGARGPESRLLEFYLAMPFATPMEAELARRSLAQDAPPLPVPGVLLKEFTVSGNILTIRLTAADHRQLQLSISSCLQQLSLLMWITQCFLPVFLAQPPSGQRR
Procedure: Binding experiments were performed in HBS-EP buffer (10 mM HEPES pH 7.4, 150 mM NaCl, 3.4 mM EDTA, and 0.005% P20 surfactant). Serially diluted antibodies were injected at a flow rate of 30 μL/min for 60 s with a dissociation time of 5 min. The chip was regenerated after each run by sequential injection of 10 mM glycine, pH 3, and 500 mM arginine, pH 8 for 1 min each. For each run, a bovine serum albumin (BSA)-coupled surface was used to subtract non-specific receptor binding.

B1: BC2-3G1 (antibody, V domains shown)
VH: QVQLQQSGPGLVKPSQTLSLTCAISGDSVSSNSAAWNWIRQSPSRGLEWLGRTYYRSKWYNDYAVSVKSRITINPDTSKNQFSLQLNSVTPEDTAVYYCARDLGIAAAGDFDYWGQGTLVTVSS
VL: EIVLTQSPATLSLSPGERATLSCRASQGVSSYLAWYQQKPGQAPRLLIYDASNRATGIPARFSGSGSGTDFTLTISSLEPEDFAVYYCHQGSNWPTFGGGTKVEI
notes: also called BC2-3G lineage member 1; BC2-3G sub-lineage 1
On to B1, for which the binding result was “binds”.
